For the series, the system named is UbG-DsRx.

For caspase-3, the “red fluorescence (DsRed) in live transgenic zebrafish embryos” value was “A control embryo (FIG. 1b) injected with a construct where the linker does not contain a cleavage site doesn't express any detectable red fluorescence (FIG. 1c)”.
